Values of other authors as cited in PMC3229669.

Target: histone H4 N-terminal tail (UniProt P62805)

Spt16 NT domain, sequence (O94267 1-442): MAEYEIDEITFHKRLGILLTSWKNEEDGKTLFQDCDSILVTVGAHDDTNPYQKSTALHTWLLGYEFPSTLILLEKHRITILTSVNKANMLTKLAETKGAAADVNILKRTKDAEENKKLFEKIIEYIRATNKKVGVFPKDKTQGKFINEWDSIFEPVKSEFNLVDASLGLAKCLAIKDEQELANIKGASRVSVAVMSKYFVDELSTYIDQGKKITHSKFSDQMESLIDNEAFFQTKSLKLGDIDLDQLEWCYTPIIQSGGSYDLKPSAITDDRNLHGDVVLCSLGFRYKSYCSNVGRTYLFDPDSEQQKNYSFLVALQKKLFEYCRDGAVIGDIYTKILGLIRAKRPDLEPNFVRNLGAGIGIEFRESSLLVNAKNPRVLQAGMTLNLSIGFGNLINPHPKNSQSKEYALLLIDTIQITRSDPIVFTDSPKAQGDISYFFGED

**Q.** With Spt16 NT domain (from UniProt O94267) as the substance, how does the Kd read?
**A.** 3 µM
